From US6759384 (AVENTIS PHARMACEUTICALS, dated 2004) come the findings set out here.

Read-outs that look alike come from different tables or passages of the source. Starred links: 1 amine or outer side, 2 acyl side, 3 side chain; linkers in the order of their positions; H or OH if unused. Non-standard residues stand in square brackets, D forms with d. *: point of attachment. (iBu)Phe(4-NH2) = N-isobutyl-4-amino-L-phenylalanine, CC(C)CN([C@@H](Cc1ccc(N[*:3])cc1)C(=O)[*:2])[*:1]; (iBu)Phe(4-CN) = N-isobutyl-4-cyano-L-phenylalanine, CC(C)CN([C@@H](Cc1ccc(C#N)cc1)C(=O)[*:2])[*:1]; dpAph = D-4-amidinophenylalanine, N=C(N)c1ccc(C[C@@H](N[*:1])C(=O)[*:2])cc1; Phe(4-NH2) = Nc1ccc(C[C@H](N)C(=O)O)cc1; 2‑naphthylmethyl = c1ccc2cc(C*)ccc2c1; Quinaldoyl = O=C(c1ccc2ccccc2n1)*; Chg = N[C@H](C(=O)O)C1CCCCC1; Nicotinoyl = O=C(c1cccnc1)*

Test [1] addresses T1, human factor Xa (Enzyme Research Laboratories, Inc.) (human, UniProt P00742 41-179; P00742 235-488, limits assumed). Briefly: cell-based or functional assay.
In test [2] the target is T1, human factor Xa (Enzyme Research …). Briefly: chromogenic FXa inhibition. As to the method:
(§1) TBS-P buffer (50 mM Tris-Cl, pH 7.8, 200 mM NaCl, 0.05% (w/v) PEG-8000, 0.02% (w/v) NaN_3) was used for this assay. The IC$50$ was determined by combining in appropriate wells of a Costar half-area microtiter plate 25 μl human factor Xa (Enzyme Research Laboratories, Inc.; South Bend Ind.) in TBS-P; 40 μl 10% (v/v) DMSO in TBS-P (uninhibited control) or various concentrations of a peptide to be tested diluted in 10% (v/v) DMSO in TBS-P; and substrate S-2765 (Nα-benzyloxycarbonyl-D-Arg-Gly-L-Arg-p-nitroanilide; Kabi Pharmacia, Inc.; Franklin Ohio) in TBS-P.
(§2) The assays were performed by pre-incubating the peptide inhibitor plus enzyme for 10 min, then the assay was initiated by adding substrate to obtain a final volume of 100 μl. The initial velocity of chromogenic substrate hydrolysis was measured by the change in absorbance at 405 nm using a Bio-tek Instruments kinetic plate reader (Ceres UV900HDi) at 25° C. during the linear portion of the time course (usually 1–5 min after addition of substrate). The concentration of inhibitor that caused a 50% decrease in the rate of substrate hydrolysis was predicted by linear regression after plotting the relative rates of hydrolysis (compared to the uninhibited control) versus the log of the peptide concentration. The enzyme concentration was 0.5 nM and substrate concentration was 140 μM.

Test [3] shares this target. Briefly: chromogenic FXa inhibition. In short, it runs like this:
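Human FXa (0.5 nM) preincubated 10 min with inhibitor in TBS-P (pH 7.8, 200 mM NaCl, PEG-8000), then S-2765 added (140 μM). Initial hydrolysis rate read at 405 nm, 25° C.; IC50 by linear regression of relative rate vs log concentration.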
The source holds these as a separate data set.

The target is the same in test [4]. Briefly: chromogenic FXa inhibition. The procedure:
as §1, §2
This is another data set of the same source.

T1 sequence (P00742 41-179 limits assumed, chain 1 of 2): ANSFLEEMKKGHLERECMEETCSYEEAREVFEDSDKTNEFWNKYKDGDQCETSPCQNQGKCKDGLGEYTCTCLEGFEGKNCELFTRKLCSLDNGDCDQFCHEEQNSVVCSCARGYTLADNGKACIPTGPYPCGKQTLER
T1 sequence (P00742 235-488 limits assumed, chain 2 of 2): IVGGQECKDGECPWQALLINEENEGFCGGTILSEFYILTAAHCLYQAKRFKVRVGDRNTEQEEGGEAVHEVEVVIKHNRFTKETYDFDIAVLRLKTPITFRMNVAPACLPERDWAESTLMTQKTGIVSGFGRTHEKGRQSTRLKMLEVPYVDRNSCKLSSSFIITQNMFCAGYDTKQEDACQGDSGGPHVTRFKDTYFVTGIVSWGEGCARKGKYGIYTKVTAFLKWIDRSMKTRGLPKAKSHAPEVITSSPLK

B1: Ac-Y-Chg-R-L-P-NH2 (peptide)
peptide: Ac-Y[Chg]RLP-NH2
SMILES: CC(=O)N[C@@H](Cc1ccc(O)cc1)C(=O)N[C@H](C(=O)N[C@@H](CCCNC(=N)N)C(=O)N[C@@H](CC(C)C)C(=O)N1CCC[C@H]1C(N)=O)C1CCCCC1
notes: also called Ac-Tyr-Chg-Arg-Leu-Pro-NH2
The term Ki denotes the dissociation constant of the complex between target and ligand, obtained from inhibition or displacement. Higher therefore signals a looser hold on the target. Turning to B1, the “EC50 (concentration giving 50% inhibition of coagulation), in vitro dilute prothrombin time assay, pooled human plasma” value in test [1] was determined as 0.225 µM. Besides, the Ki in test [2] and in test [3] was less than 100 µM throughout.

B2: Ac-W-Chg-R-L-P-NH2 (peptide)
peptide: Ac-W[Chg]RLP-NH2
SMILES: CC(=O)N[C@@H](Cc1c[nH]c2ccccc12)C(=O)N[C@H](C(=O)N[C@@H](CCCNC(=N)N)C(=O)N[C@@H](CC(C)C)C(=O)N1CCC[C@H]1C(N)=O)C1CCCCC1
notes: also called Ac-Trp-Chg-Arg-Leu-Pro-NH2
In the case of B2, the Ki in test [2] and in test [3] was less than 100 µM throughout.

B3: Ac-(iBu)F(pNH2)-Chg-R-L-P-NH2 (peptide)
peptide: Ac-[(iBu)Phe(4-NH2)][Chg]RLP-NH2
notes: also called Ac-(iBu)-Phe(pNH2)-Chg-Arg-Leu-Pro-NH2
B3: the inhibition constant Ki in test [2] and in test [3] was less than 100 µM each time.

B4: (2-methylbenzyl)-Phe(pNH2)-Chg-Arg-Leu-Pro-NH2 (peptide)
peptide: {2‑methylbenzyl}-[Phe(4-NH2)][Chg]RLP-NH2
In turn, B4 returned an inhibitory constant (Ki) in test [2] of less than 100 µM.

B5: (2-naphythl-CH2)Phe(pNH2)-Chg-Arg-Leu-Pro-NH2 (peptide)
peptide: {2‑naphthylmethyl}-[Phe(4-NH2)][Chg]RLP-NH2
SMILES: CC(C)C[C@H](NC(=O)[C@H](CCCNC(=N)N)NC(=O)[C@@H](NC(=O)[C@H](Cc1ccc(N)cc1)NCc1ccc2ccccc2c1)C1CCCCC1)C(=O)N1CCC[C@H]1C(N)=O
Consider B5, for which the Ki in test [2] was less than 100 µM.

B6: (3-pyridoyl)-Phe(pNH2)-Chg-Arg-Leu-Pro-NH2 (peptide)
peptide: Nicotinoyl-[Phe(4-NH2)][Chg]RLP-NH2
SMILES: CC(C)C[C@H](NC(=O)[C@H](CCCNC(=N)N)NC(=O)[C@@H](NC(=O)[C@H](Cc1ccc(N)cc1)NC(=O)c1cccnc1)C1CCCCC1)C(=O)N1CCC[C@H]1C(N)=O
B6: in test [2], the Ki is less than 100 µM.

B7: Ac-F(pNH2)-Chg-R-L-P-NH2 (peptide)
peptide: Ac-[Phe(4-NH2)][Chg]RLP-NH2
SMILES: CC(=O)N[C@@H](Cc1ccc(N)cc1)C(=O)N[C@H](C(=O)N[C@@H](CCCNC(=N)N)C(=O)N[C@@H](CC(C)C)C(=O)N1CCC[C@H]1C(N)=O)C1CCCCC1
notes: also called Ac-Phe(pNH2)-Chg-Arg-Leu-Pro-NH2
Take B7: the inhibition constant Ki in test [2] and in test [3] was less than 100 µM each time.

B8: Ac-(2-Me-nBu)Y-I-R-L-P-NH2 (peptide)
peptide: XIRLP
modifications: N-term Ac; N-(2-Me-nBu) on Y1; C-term NH2
With B8, the Ki in test [2] and in test [3] was less than 100 µM in each case.

B9: Ac-(Chx-CH2)Y-I-R-L-P-NH2 (peptide)
peptide: XIRLP
modifications: N-term Ac; N-(Chx-CH2) on Y1; C-term NH2
notes: also called Ac-(Chx-CH2)Tyr-Ile-Arg-Leu-Pro-NH2; Ac-(Chx-CH2)-Tyr-Ile-Arg-Leu-Pro-NH2
Regarding B9, the Ki in test [2] and in test [3] was less than 100 µM throughout.

B10: Tfa-(iBu)Y-I-R-L-P-NH2 (peptide)
peptide: XIRLP
modifications: N-term Tfa; N-(iBu) on Y1; C-term NH2
As for B10, the Ki in test [2] and in test [3] was less than 100 µM in each case.

B11: (2-quinolinoyl)-Phe(NH2)-Chg-Arg-Leu-Pro-NH2 (peptide)
peptide: Quinaldoyl-F[Chg]RLP-NH2
modifications: not fully specified (residue 1); printed as (2-quinolinoyl)-Phe(NH2)-Chg-Arg-Leu-Pro-NH2
For the molecule B11, the Ki in test [2] was less than 100 µM.

B12: Ac-D-pAph-Ile-Arg-Leu-Pro-NH2 (peptide)
peptide: Ac-[dpAph]IRLP-NH2
Molecule B12 displayed a Ki in test [2] of less than 100 µM.

B13: 5-Bzim-CO-F(pNH2)-Chg-R-L-P-NH2 (peptide)
peptide: {5‑benzimidazolecarbonyl}-[Phe(4-NH2)][Chg]RLP-NH2
notes: also called (5-benzimidazoyl)-Phe(NH2)-Chg-Arg-Leu-Pro-NH2
In the case of B13, the Ki in test [2] and in test [3] was less than 100 µM in each case.

B14: Ac-(2-Me-nPentyl)Y-I-R-L-P-NH2 (peptide)
peptide: XIRLP
modifications: N-term Ac; N-(2-Me-nPentyl) on Y1; C-term NH2
notes: also called Ac-(CH3CH2CH2CH(CH3)CH2)-Y-I-R-L-P-NH2
B14: the inhibitory constant (Ki) in test [2] and in test [3] was less than 100 µM throughout.

B15: (iBu)Y-I-R-L-P-NH2 (peptide)
peptide: XIRLP
modifications: N-(iBu) on Y1; C-term NH2
For the molecule B15, the Ki was 2.6 µM in test [4] and less than 100 µM in test [3].

B16: Ac-(iBu)Phe(pCN)-Chg-Arg-Leu-Pro-NH2 (peptide)
peptide: Ac-[(iBu)Phe(4-CN)][Chg]RLP-NH2
B16 had an inhibitory constant (Ki) in test [2] of less than 100 µM.
